The record followed here is PMC2117344, “A New In Vitro Strand Transfer Assay for Monitoring Bacterial Class 1 Integron Recombinase IntI1 Activity”.

The target of this data set is T1, IntI1(his)6 wild type (Pseudomonas aeruginosa Pa695 (class 1 …, UniProt Q7BP41 1-337)).
T1 sequence: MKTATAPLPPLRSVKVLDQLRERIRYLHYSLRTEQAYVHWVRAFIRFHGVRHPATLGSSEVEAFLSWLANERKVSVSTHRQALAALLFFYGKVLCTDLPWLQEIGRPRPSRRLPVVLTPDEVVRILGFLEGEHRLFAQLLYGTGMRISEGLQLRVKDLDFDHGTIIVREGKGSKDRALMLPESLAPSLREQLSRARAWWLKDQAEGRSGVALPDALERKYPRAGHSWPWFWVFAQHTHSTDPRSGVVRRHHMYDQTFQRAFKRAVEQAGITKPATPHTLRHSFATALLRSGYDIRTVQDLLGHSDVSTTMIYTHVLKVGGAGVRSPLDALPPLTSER
In words: EMSA; 20 min at 4 C in 20 ul, 0.1 pmol DNA, 1-10 pmol IntI1, 1% agarose gel at 4 C; filter wash buffer 20 mM HEPES pH 7.5, 10 mM MnCl2, 30 mM NaCl (pre-wash 10 mM NaCl, 100 ug/ml calf thymus DNA); exact binding buffer not given. The settings on record: protein: recombinant, tags: C-terminal His6 (pET101D-Topo), label: 5' 32P.

B1: attI1ds (dsDNA)
DNA 1: ACGCCGTGGGTCGATGTTTGATGTTATGGAGCAGCAACGATGTTACGCAGCAGGGCAGTCGCCCTAAAACAAAGTTAGGTGGCTCAATGAGCATCATTGC
DNA 2: GCAATGATGCTCATTGAGCCACCTAACTTTGTTTTAGGGCGACTGCCCTGCTGCGTAACATCGTTGCTGCTCCATAACATCAAACATCGACCCACGGCGT
Consider B1, for which the binding result (blunt) was “binds”.

B2: attC top strand (attCts) (ssDNA)
DNA: CGCCCGTCTAACAATTCGTTCAAGCCGACGTTGCTTCGTGGCGGCGCTTGCGTGCTACGCTAAGCTTCGCACGCCGCTTGCCACTGCGCACCGCGGCTTAACTCAGGCGTTAGATGCACT
For B2, for the setting “single strand”, the binding result is listed as “no binding”.

B3: attC bottom strand (attCbs) (ssDNA)
DNA: AGTGCATCTAACGCCTGAGTTAAGCCGCGGTGCGCAGTGGCAAGCGGCGTGCGAAGCTTAGCGTAGCACGCAAGCGCCGCCACGAAGCAACGTCGGCTTGAACGAATTGTTAGACGGGCG
Consider B3, for which, for the setting “single strand”, the binding result is “binds”.
